Assay results published in the RNAGym collection of RNA variant scans (doi:10.1021/acssynbio.7b00057).

B1: Pistol ribozyme (parent)
chain: GGGUCGUUGUUCCAUAAUCGCGUGGAUAUGGCACGCAAGUUUCUACCGGGCACCGUAAAUGUCCGACUGGAGCCGUUCGGGCGGCUAUAAACAGACCUCAGGCCCGAAGCGUGGCGGCACCUGCCGCCGGUGGUAAAAAAGAUCGGAAGAGCACACGUCU

Variants of: B1
Experiment: aptazyme ON/OFF ratio, guanine; higher = stronger switching; co-transcriptional cleavage with and without guanine

| Variant | aptazyme ON/OFF ratio |
| --- | --- |
| U7A G9A U10A C12G | 1.21 |
| U7A G9A U10A C12U | 1.21 |
| U7A G9A U10G C12A C13U | 1.34 |
| U7A G9A U10G C12A C13G | 1.15 |
| U7A G9A U10G C12A C13A | 1.17 |
| U7A G9A U10A U11C C12U C13A | 1.13 |
| U7A G9A U10A U11C C12U C13G | 1.18 |
| U7A G9A U10A U11C C12U C13U | 1.15 |
| U7A G9A U10C U11G C12G C13G | 1.27 |
| U7A G9A U10C U11G C12G C13U | 1.14 |
| U7A G9A U10C U11G C12G C13A | 1.17 |
| U7A G9A U10C U11A C12G C13G | 1.32 |
| U7A G9A U10C U11A C12G C13U | 1.16 |
| U7A G9A U10C U11A C12G C13A | 1.19 |
| U7A G9A U10C C12A | 1.43 |
| U7A G9A U10C C12G | 1.34 |
| U7A G9A U10C C12U | 1.26 |
| U7A G9A U10A U11A C13A | 1.15 |
| U7A G9A U10A U11A C13U | 1.21 |
| U7A G9A U10A U11A C13G | 1.08 |
| U7A G9A U10A U11A C12A C13U | 1.32 |

| Variant | aptazyme ON/OFF ratio |
| --- | --- |
| U7A G9A U10A U11A C12A C13G | 1.13 |
| U7A G9A U10A U11A C12A C13A | 1.41 |
| U7A G9A U10A C12U C13U | 1.2 |
| U7A G9A U10A C12U C13G | 1.11 |
| U7A G9A U10A C12U C13A | 1.1 |
| U7A G9A U10C U11C C12A C13G | 1.08 |
| U7A G9A U10C U11C C12A C13A | 1.06 |
| U7A G9A U10C U11C C12A C13U | 1.12 |
| U7A G9A U10C U11A C12U | 1.31 |
| U7A G9A U10C U11A C12A | 1.24 |
| U7A G9A U10C U11A C12G | 1.27 |
| U7A G9A U10C U11C C12U C13G | 1.04 |
| U7A G9A U10C U11C C12U C13U | 1.04 |
| U7A G9A U10C U11C C12U C13A | 1.03 |
| U7A G9A U10A U11G C12U C13U | 1.42 |
| U7A G9A U10A U11G C12U C13G | 1.15 |
| U7A G9A U10A U11G C12U C13A | 1.17 |
| U7A C12A C13A | 1.4 |
| U7A C12A C13U | 1.22 |
| U7A C12A C13G | 1.2 |
| U7A G9A U10G C12G | 1.21 |

| Variant | aptazyme ON/OFF ratio |
| --- | --- |
| U7A G9A U10G C12A | 1.13 |
| U7A C12G C13G | 1.26 |
| U7A C12G C13A | 1.38 |
| U7A C12G C13U | 1.27 |
| U7A C12U | 1.48 |
| U7A C12A | 1.54 |
| U7A C12G | 1.44 |
| U7A G9A U10A U11C C13A | 1.02 |
| U7A G9A U10A U11C C13G | 1.1 |
| U7A G9A U10A U11C C13U | 1.06 |
| U7A G9A U10C U11C C13G | 1.03 |
| U7A G9A U10C U11C C13A | 0.975 |
| U7A G9A U10C U11C C13U | 1.02 |
| U7A G9A C12A C13U | 1.37 |
| U7A G9A C12A C13G | 1.13 |
| U7A G9A C12A C13A | 1.13 |
| U7A G9A U10C C12G C13U | 1.2 |
| U7A G9A U10C C12G C13A | 1.15 |
| U7A G9A U10C C12G C13G | 1.17 |
| U7A G9A C13G | 1.06 |
| U7A G9A C13A | 1.24 |

| Variant | aptazyme ON/OFF ratio |
| --- | --- |
| U7A G9A C13U | 1.32 |
| U7A G9A U10C U11G C12U C13A | 1.15 |
| U7A G9A U10C U11G C12U C13G | 1.21 |
| U7A G9A U10C U11G C12U C13U | 1.3 |
| U7A G9A U10A U11C C12A C13G | 1.15 |
| U7A G9A U10A U11C C12A C13A | 1.18 |
| U7A G9A U10A U11C C12A C13U | 1.1 |
| U7A G9A | 1.83 |
| U7A | 3.28 |
| U7A G9A U10C C12A C13G | 1.22 |
| U7A G9A U10C C12A C13U | 1.21 |
| U7A G9A U10C C12A C13A | 1.13 |
| U7A G9A U10C U11A C13G | 1.12 |
| U7A G9A U10C U11A C13U | 1.19 |
| U7A G9A U10C U11A C13A | 1.15 |
| U7A G9A U10C U11C C12U | 1.03 |
| U7A G9A U10C U11C C12A | 1.18 |
| U7A G9A U10C U11C C12G | 1.09 |
| U7A G9A U10A U11A C12A | 1.25 |
| U7A G9A U10A U11A C12U | 1.21 |
| U7A G9A U10A U11A C12G | 1.15 |
